Key:
CD39 = target: T1, CD39 (Homo sapiens, UniProt P49961); assay: ELISA titration on huCD39 (vascular isoform); format: binding; set-up: made in house
T1 sequence (P49961 1-510): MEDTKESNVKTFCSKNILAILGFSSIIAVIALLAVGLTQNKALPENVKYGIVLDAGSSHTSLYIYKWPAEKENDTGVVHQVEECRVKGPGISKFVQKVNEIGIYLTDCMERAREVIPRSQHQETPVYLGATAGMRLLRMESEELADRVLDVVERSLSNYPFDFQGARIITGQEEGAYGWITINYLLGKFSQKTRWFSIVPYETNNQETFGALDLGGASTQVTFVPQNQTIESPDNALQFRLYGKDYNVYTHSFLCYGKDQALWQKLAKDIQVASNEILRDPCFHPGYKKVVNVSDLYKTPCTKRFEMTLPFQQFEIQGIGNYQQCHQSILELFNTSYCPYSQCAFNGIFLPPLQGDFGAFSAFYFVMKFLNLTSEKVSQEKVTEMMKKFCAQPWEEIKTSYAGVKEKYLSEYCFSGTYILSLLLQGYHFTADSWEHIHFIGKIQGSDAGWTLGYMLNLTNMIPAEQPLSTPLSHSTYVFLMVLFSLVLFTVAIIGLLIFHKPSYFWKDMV
Method: Antibody I-394 was tested for binding to recombinant human CD39 isoforms (Rec-huCD39 isoforms) having amino acid sequences shown below were coated in 96-well plate in PBS 1X at 500 ng/ml or 1 μg/ml at 4° C. overnight. Wells were washed in TBS Tween® 20 (polysorbate 20), and further saturated 2H at RT in TBS Blocking buffer. Dose range concentration of primary antibody was incubated in TBS blocking buffer for 2 h at RT. Wells were washed in TBS Tween® 20 (polysorbate 20). […] Optical density was measured on Enspire™ at OD=450.

[1] = target: T2, CD39 expressed by Ramos human lymphoma cells (Homo sapiens, UniProt P49961); assay: Inhibition of the enzymatic activity of cellular CD39 in Ramos cells; format: cell-based
T2 construct: cells that endogenously express CD39 at their surface; host or cells: Ramos
T2 sequence (P49961 1-510): T1 sequence (P49961 1-510)
Method: (§1) The inhibition of the CD39 enzymatic activity in CD39-expressing cells by antibodies was evaluated using Cell Titer GIo™ (Promega, reference G7571) that allows assessment of ATP hydrolysis through use of a reagent that generates a luminescent signal proportional to the amount of ATP present. The assay was thus designed to permit assessment of the inhibition of ATP hydrolyzed by CD39 in the cell culture supernatant. Briefly, 5×10^4 Ramos human lymphoma cells, 5×10^3 human CD39−, cynomolgus CD39—and mouse CD39− expressing CHO cells, were incubated 1 hour at 37° C. with anti-CD39 antibodies from 30 μg/ml to 5×10^−4 μg/ml. Cells were then incubated with 20 μM ATP for 1 additional hour at 37° C. Plates were centrifuged for 2 min at 400 g and 50 μl cell supernatant are transferred in a luminescence microplate (white wells). 50 μl CellTiter-Glo™ Reagent (CTG) was added to the supernatant and emitted light was quantified after a 5 min incubation in the dark using a Enspire™ luminometer. Anti-CD39 antibody efficacy was determined by comparing emitted light in presence of antibody with ATP alone (maximal light emission) and ATP together with cells (minimal light emission).

[2] = target: T3, CHO cells expressing human CD39 (Homo sapiens, UniProt P49961); assay: Antibody titration on CHO-huCD39 by flow cytometry; format: binding; conditions: qualitative
T3 construct: expressed in transfected cells; host or cells: CHO
T3 sequence (P49961 1-510): T1 sequence (P49961 1-510)
Method: (§2) Antibody I-394 was tested in two repeated experiments for binding to CHO cells expressing human CD39, CHO cells expressing cynomolgus (Macaca fascicularis) CD39, CHO cells expressing murine CD39, and human Ramos lymphoma cells (ATCC™, reference CRL-1596). Cells were incubated with various concentration of unlabeled anti-CD39 antibody from 30 μg/ml to 5×10^−4 μg/ml, for 30 minutes at 4° C. After washes, cells were incubated with Goat anti-mouse H+L labeled secondary antibody for 30 min at 4° C.

[3] = target: T4, CHO cells expressing murine CD39 (Mus musculus, UniProt P55772); assay: Antibody titration on CHO-moCD39 by flow cytometry; format: binding; conditions: qualitative
T4 construct: expressed in transfected cells; host or cells: CHO
T4 sequence (P55772 1-510): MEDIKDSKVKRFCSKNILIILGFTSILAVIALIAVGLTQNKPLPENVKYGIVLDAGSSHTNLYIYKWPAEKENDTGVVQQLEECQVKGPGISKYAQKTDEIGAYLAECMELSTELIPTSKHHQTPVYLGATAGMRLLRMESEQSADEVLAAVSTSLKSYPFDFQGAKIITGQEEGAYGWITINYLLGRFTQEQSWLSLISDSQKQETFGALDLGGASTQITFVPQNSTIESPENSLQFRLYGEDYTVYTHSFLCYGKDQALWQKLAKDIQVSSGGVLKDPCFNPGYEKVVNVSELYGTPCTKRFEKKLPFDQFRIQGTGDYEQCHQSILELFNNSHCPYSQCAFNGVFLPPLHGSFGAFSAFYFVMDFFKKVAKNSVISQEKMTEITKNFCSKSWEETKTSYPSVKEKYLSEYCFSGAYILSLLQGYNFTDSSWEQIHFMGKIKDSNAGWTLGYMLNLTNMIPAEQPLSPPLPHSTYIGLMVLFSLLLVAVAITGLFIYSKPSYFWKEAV
Method: as §2

cell-membrane bound CD39 = target: T5, cell-membrane bound CD39 (Homo sapiens, UniProt P49961); assay: Inhibition of the enzymatic activity of cellular CD39 (cells not specified); format: cell-based
T5 sequence (P49961 1-510): T1 sequence (P49961 1-510)
Method: as §1

allogenic CD4 T cells = assay: Mixed lymphocytes reaction (MLR) with ATP-activated DC; format: cell-based, human; conditions: MoDC activated in presence of ATP and antibody
Method: Briefly, human monocytes were purified from human healthy blood and differentiated into MoDC in presence of GM-CSF and IL-4 during 6 days. Then MoDC were activated in presence of ATP (Sigma, 0.25-1 mM) during 24 hours and DC activation were assessed by analyzing CD80, CD83 and HLA-DR expression by flow cytometry. In some cases, MoDC were preincubated for 1 hour in presence of CD39 inhibitor: […] (Tocris, 250 μM), CD73 inhibitor: APCP (Tocris 50 μM), anti-CD39 blocking antibody I-394 or BY40 (for BY40 see WO2009/095478), or anti-CD73 blocking antibodies. LPS (Invivogen, 10 ng/ml) was used as positive control. To assess resulting effect of ATP-mediated DC activation on CD4 T cells activation, ATP-activated DC were washed and then incubated with allogenic CD4 T cells (ratio 1 MoDC/4 T cells) for a mixed lymphocytes reaction (MLR) during 5 days. T cells activation and proliferation were analyzed through CD25 expression and Cell Trace Violet dilution by flow cytometry (FIG. 8).
Antibodies were tested to assess their efficacy in reducing T cell suppression in the assay described in Example 12. […] T cells activation and proliferation were analyzed through CD25 expression and Cell Trace Violet dilution by flow cytometry.

I-394: anti-CD39 antibody, VH SEQ ID NO: 6, VL SEQ ID NO: 7, human IgG1 Fc with L234A/L235E/G237A/A330S/P331S
binding to CD39 in ELISA (CD39): bound to the CD39 | inhibition maximum, cellular CD39 ([1]; Ramos cells): 81.6% | potency at blocking CD39 enzymatic activity relative to other antibodies ([1]; Ramos cells): greater potency compared to all other antibodies tested | blocking CD39 enzymatic activity in tumor (Ramos) cells ([1]; qualitative): highly potent at blocking CD39 enzymatic activity | binding to cells expressing human CD39 (CHO-huCD39) [2]: bound | binding to cells expressing murine CD39 (CHO-moCD39) [3]: but not to cells expressing murine CD39 | potency and maximal inhibition of cellular CD39 compared to BY40 (cell-membrane bound CD39; FIG. 2A): greater potency and maximal inhibition of cellular CD39 compared to BY40 | inhibition of cell-membrane bound (cellular) CD39 ATPase activity (cell-membrane bound CD39; qualitative): inhibit cell-membrane bound CD39 | T cells proliferation and activation in MLR (CD25, Cell Trace Violet dilution) (allogenic CD4 T cells): resulted in higher T cells proliferation and activation

— patent US12202907B2, “Nucleic acids encoding and methods of producing proteins comprising antibody chains” (Innate Pharma, priority 2018, dated 2025)
